Densitometry counts of the anti-tubulin β3 immunoblot data for one substance are collected here from article PMC4022642.

The target of the assay is GST fusion of human TRESK cytoplasmic loop (amino acids 174-280) (human) (UniProt Q7Z418). The assay can be described thus: pull-down; GST-TRESK 174-280 on glutathione agarose; mouse brain cytosol; four pairs of independent assays; anti-tubulin β3 Western blot with densitometry (ImageJ). Background: Immunoblotting shows a protein as a band on a membrane.
Sequence of UniProt Q7Z418 (Q7Z418 other isoform, or with tags, fused parts or gaps): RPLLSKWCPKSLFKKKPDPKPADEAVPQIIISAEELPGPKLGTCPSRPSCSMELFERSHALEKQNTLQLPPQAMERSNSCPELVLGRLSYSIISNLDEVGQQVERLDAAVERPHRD

In turn, “tubulin (mouse brain cytosol) (from UniProt P05213 1-451; Q9ERD7 1-450) (complex)” yielded a densitometry counts of the anti-tubulin β3 immunoblot of 20500 counts.
